Test results published in EP4682166A1 (Guangzhou Enmai Biotechnology Co., Ltd, dated 2026).

Key:
[1] = molecular target: T1, human NMI (N-myc Interacting protein) (human) (UniProt Q13287); assay: magnetic-bead chemiluminescent sandwich; capture 98G10 beads (0.5 mg 98G10), detection acridinium-B-8; hNMI 50 pg/ml
T1 sequence (looked up): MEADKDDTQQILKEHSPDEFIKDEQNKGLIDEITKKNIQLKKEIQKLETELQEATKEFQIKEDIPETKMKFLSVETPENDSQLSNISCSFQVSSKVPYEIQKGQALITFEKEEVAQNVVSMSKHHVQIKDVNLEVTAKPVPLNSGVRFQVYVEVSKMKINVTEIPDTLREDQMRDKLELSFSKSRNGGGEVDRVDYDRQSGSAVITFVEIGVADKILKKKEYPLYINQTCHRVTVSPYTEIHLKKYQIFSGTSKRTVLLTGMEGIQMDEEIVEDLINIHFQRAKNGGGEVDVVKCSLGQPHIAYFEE

[2] = molecular target: T1, human NMI (N-myc Interacting protein) (human); assay: magnetic-bead chemiluminescent sandwich; capture 98G10 beads (0.5 mg 98G10), detection acridinium-B-8; hNMI 400 pg/ml
[3] = molecular target: T1, human NMI (N-myc Interacting protein) (human); assay: magnetic-bead chemiluminescent sandwich; capture 98G10 beads (0.5 mg 98G10), detection acridinium-B-8; hNMI 1000 pg/ml
[4] = molecular target: T1, human NMI (N-myc Interacting protein) (human); assay: magnetic-bead chemiluminescent sandwich; capture 98G10 beads, detection acridinium-B-8 (2.0 mg B-8 labelled); hNMI 100 pg/mL
[5] = molecular target: T1, human NMI (N-myc Interacting protein) (human); assay: magnetic-bead chemiluminescent sandwich; capture 98G10 beads, detection acridinium-B-8 (2.0 mg B-8 labelled); hNMI 2000 pg/mL
[6] = molecular target: T1, human NMI (N-myc Interacting protein) (human); assay: magnetic-bead chemiluminescent sandwich, kit of Example 8-1; capture 98G10 beads, detection acridinium-B-8; series 1, hNMI 4000 pg/mL
[7] = molecular target: T1, human NMI (N-myc Interacting protein) (human); assay: magnetic-bead chemiluminescent sandwich, kit of Example 8-1; capture 98G10 beads, detection acridinium-B-8; series 1, hNMI 8000 pg/mL
[8] = molecular target: T1, human NMI (N-myc Interacting protein) (human); assay: magnetic-bead chemiluminescent sandwich, kit of Example 8-1; capture 98G10 beads, detection acridinium-B-8; series 2, hNMI 3600 pg/mL
[9] = molecular target: T1, human NMI (N-myc Interacting protein) (human); assay: magnetic-bead chemiluminescent sandwich, kit of Example 8-1; capture 98G10 beads, detection acridinium-B-8; series 3, hNMI 4000 pg/mL
[10] = molecular target: T1, human NMI (N-myc Interacting protein) (human); assay: magnetic-bead chemiluminescent sandwich, kit of Example 8-1; capture 98G10 beads, detection acridinium-B-8; series 1, hNMI 14000 pg/mL

Signal value [1]: 4560
Signal value [2]: 39900
Signal value [3]: 97600
Signal value [4]: 11900
Signal value [5]: 234000
Signal value [6]: 258000
Signal value [7]: 587000
Signal value [8]: 408000
Signal value [9]: 572000
Signal value [10]: 1.05e+06
B1: acridinium ester-labeled monoclonal antibody B-8 (antibody, V domains shown)
VH: QSLEESGGDLVKPGASLTLTCTASGFSFSSSYYMCWVRQAPGKGLEWIACIYAGSSGSTYYASWAKGRFTISKTSSTTVTLQMTSLTAADTATYFCAREYSYDDYGDFWGFNLWGPGTLVTVSS
VL: ALVMTQTPSSVSAAVGGTVTINCQASQNIYTNLAWYQQKPGQPPKLLIYGASNLESGVPSRFKGSGSGTEYTLTISDLECDDAATYYCQSSLYSRIADRANAFGGGTEVVVK
modifications: acridinium ester label on the antibody, site not stated
